This is an account of results in patent publication US20130280736A1 (MOUNT SINAI HOSPITAL, published 2013).

Assay [1] deals with T1, prolyl-4-hydroxylase 2 (PHD2) (human, UniProt Q9GZT9 2-426, limits assumed).
T1 construct: Endogenous protein in human placental tissues
Description: preliminary experiments, method not described.

In assay [2] the target is HIF-1αP402R-P564R. Description: Western blot of lysates of transfected JEG3 cells, β-actin as loading control. How it is done:
Thus, the antibodies may be useful in predicting the severity of preeclampsia. The monoclonal antibodies were affinity purified, their IgG isotype was determined and their specificity validated (see Table 2 and FIGS. 7 and 8). The antibodies were validated using the following strategy. […] Following transfection with the various HIF-1α constructs, JEG-3 choriocarcinoma and HEK293 cells were cultured with proteosomal inhibitor MG-132 to prevent HIF degradation and Western blot and immunofluorescence analyses were used to establish the specificity and utility of the various clones. Validation experiments were run in parallel using both purified and non-purified clones to rule out potential changes in antibody performance following purification. The Western blot results unequivocally indicate that clones 1H1, 6H4 and 5A5 recognize HIF-P402^OH; clone 6A9 recognizes HIF-P564^OH; clone 7D6 recognizes both HIF-P402^OH and HIF-P64^OH; and clone 7E3 is excellent to detect total HIF-1α. […] Immunofluorescence analysis was conducted in cells and tissue sections.
Background: Immunoblotting shows a protein as a band on a membrane.

Sequence of HIF-1αP402R-P564R (chain, as listed by the source P402R P564R P402R P564R limits assumed): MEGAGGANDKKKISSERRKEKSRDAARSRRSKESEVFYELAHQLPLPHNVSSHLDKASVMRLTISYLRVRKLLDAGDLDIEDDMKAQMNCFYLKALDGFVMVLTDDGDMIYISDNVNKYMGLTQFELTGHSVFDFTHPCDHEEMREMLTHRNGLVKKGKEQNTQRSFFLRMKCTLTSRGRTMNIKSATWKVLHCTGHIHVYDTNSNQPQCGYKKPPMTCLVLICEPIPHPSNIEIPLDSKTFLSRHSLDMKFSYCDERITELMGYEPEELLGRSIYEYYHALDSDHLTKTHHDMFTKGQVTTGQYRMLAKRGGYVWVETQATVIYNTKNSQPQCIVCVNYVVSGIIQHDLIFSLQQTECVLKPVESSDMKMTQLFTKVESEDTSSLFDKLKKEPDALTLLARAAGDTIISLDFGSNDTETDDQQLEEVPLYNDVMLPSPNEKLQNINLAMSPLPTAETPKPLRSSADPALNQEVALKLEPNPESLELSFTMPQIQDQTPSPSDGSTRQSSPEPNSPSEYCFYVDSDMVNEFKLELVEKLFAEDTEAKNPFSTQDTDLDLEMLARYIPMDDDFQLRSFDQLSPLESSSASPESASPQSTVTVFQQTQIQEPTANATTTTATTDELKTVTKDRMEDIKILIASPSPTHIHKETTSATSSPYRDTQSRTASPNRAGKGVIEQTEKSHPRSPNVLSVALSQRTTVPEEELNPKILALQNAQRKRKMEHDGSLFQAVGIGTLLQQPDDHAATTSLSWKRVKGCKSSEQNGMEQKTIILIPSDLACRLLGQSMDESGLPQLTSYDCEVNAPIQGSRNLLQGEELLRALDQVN
T1 sequence (Q9GZT9 2-426 limits assumed): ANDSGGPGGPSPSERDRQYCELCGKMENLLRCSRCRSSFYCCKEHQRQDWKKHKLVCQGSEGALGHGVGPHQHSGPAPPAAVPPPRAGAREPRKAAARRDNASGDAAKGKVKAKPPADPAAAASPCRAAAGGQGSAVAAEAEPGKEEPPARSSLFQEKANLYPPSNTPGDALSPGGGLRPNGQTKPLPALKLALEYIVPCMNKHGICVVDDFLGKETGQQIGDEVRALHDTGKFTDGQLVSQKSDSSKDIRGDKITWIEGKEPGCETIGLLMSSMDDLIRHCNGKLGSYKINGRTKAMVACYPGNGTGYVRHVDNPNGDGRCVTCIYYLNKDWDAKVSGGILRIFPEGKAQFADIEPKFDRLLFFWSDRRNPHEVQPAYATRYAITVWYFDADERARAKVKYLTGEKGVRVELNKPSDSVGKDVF

B1: prolyl-4-hydroxylase 3 (PHD3) (enzyme, human, UniProt Q9H6Z9 1-239, looked up)
chain: MPLGHIMRLDLEKIALEYIVPCLHEVGFCYLDNFLGEVVGDCVLERVKQLHCTGALRDGQLAGPRAGVSKRHLRGDQITWIGGNEEGCEAISFLLSLIDRLVLYCGSRLGKYYVKERSKAMVACYPGNGTGYVRHVDNPNGDGRCITCIYYLNKNWDAKLHGGILRIFPEGKSFIADVEPIFDRLLFFWSDRRNPHEVQPSYATRYAMTVWYFDAEERAEAKKKFRNLTRKTESALTED
notes: Endogenous protein in human placental tissues; the method of the preliminary experiment is not described
Turning to B1, in assay [1], the binding result is listed as “binds”.

B2: monoclonal antibody clone 6A9 (antibody, V domains shown)
VH: DVQLVESGGGLVQPGGSRKLSCAASGFTFSSFGMHWVRQAPEKGLEWVAFISSGSHTIFYADTVKGRFTISRDNPKNTLFLQMTSLRSEDTAMYYCTRDYNAYWGQGTLVTVSA
VL: DVLMTQTPLSLPVSLGDQASISCRSSQSIVHSNGNTYLEWYLQKPGQSPKLLIYKVSNRFSGVPDRFSGSGSGTDFTLKISRVEAEDLGVYYCFQGTHVPLTFGAGTKLEL
notes: also called anti-HIF-1αP564^OH
Consider B2, for which, in assay [2], the binding result was “no binding”.
